{
  "source": "paper PMC7118173",
  "about": "(Nature Communications, 2020)",
  "molecules": {"B1": {"name": "SepF: C. glutamicum SepF (cg2363), full-length (protein)", "chain": "MSMLKKTKEFFGLAPYEAEHEDAYYADEPRYEGTAAYAPEYRERDYGYAPEAPAPVAPSPAPRSYQSTIVPVELHSFEDAQVIGGAFRDGDAVVFDMSLLSREEARRIVDFAAGLCFALRGKMQKIDSVTFAVVPELSNISTSELERAARIR", "modifications": "left off: His6, N-terminal, cleaved | SUMO, N-terminal, cleaved"}, "B2": {"name": "SepFK125E/F131A-Scarlet: Scarlet-tagged SepF impaired for FtsZ binding (protein)", "chain": "B1 chain with K125E, F131A", "modifications": "left off: mScarlet-I, C-terminal, kept"}},
  "key": {"[1]": {"system": "SepF", "experiment": "SepF polymerization (turbidity) assay in the presence of SUVs", "assay_type": "biochemical, C. glutamicum", "settings": "SepF (or mutant) plus SUVs 50 µM each, pH 6.9, 25 °C", "protocol": "When used, FtsZCTD was added at a final concentration of 100 μM.\nReverse phase evaporation was used to prepare small unilamellar vesicles (SUVs). A 10 mM lipid solution made of an 8:2 mixture of 1-palmitoyl-2-oleoyl phosphatidylcholine (POPC) and 1-palmitoyl-2-oleoylglycero-3-phosphoglycerol (POPG) (Avanti Polar Lipids) was prepared as described. Chloroform was removed by evaporation under vacuum conditions and the dried phospholipid film was resuspended in a mixture of diethyl ether and buffer (25 mM Hepes pH 7.4, 10 mM MgCl2 and 150 mM KCl). Diethyl ether was eliminated by reverse phase evaporation and by slowly decreasing the pressure to the vacuum. SUVs were obtained by sonication during 30 min at 4 °C. The diameter and charge of SUV were determined by measuring dynamic light scattering (DLS) and electrophoretic mobility profiles on a Zetasizer Nano instrument (Malvern Instruments)."}, "[2]": {"system": "FtsZ"}, "[3]": {"system": "FtsZ", "remark": "listed apart in the source", "method": "After, 100 µl of the mixture were place in a 96-well-plate that contained GTP at 2 mM final concentration. Reactions were incubated at room temperature for 10 min and 100 µl of the developing reagent was added. The mixture was incubated at room temperature for 25 min to allow development of the green color and absorbance was measured at 620 nm using a Varioskan™ LUX (Thermo Fisher Scientific). Reactions were performed in triplicate for each condition."}, "[4]": {"system": "SepF", "experiment": "Western blots of whole-cell extracts (SepF depletion / expression)", "assay_type": "cell-based, C. glutamicum", "settings": "SepF under Ptac, WT", "protocol": "24 homogenizer. Crude extracts (120 μg) were analyzed by SDS-PAGE, electro-transferred onto a 0.2 μm Nitrocellulose membrane and blocked with 5% (w/v) skimmed milk. Membranes were incubated with an anti-SepF antibody (produced by Covalab, Supplementary Fig. 25a), an anti-FtsZ antibody (produced by Proteogenix, Supplementary Fig. 25b) or an anti-mNeonGreen antibody (purchased from Chromotek) for 1 h at room temperature."}, "[5]": {"system": "WT C. glutamicum", "experiment": "Number of ring-like structures per cell, overexpression in WT", "assay_type": "cell-based, Corynebacterium glutamicum", "settings": "for ring-like structures per cell: overexpression in WT background"}, "[6]": {"experiment": "Negative stain EM of SepF rings", "assay_type": "physicochemical", "protocol": "For all samples, 400 mesh carbon coated grids (Electron Microscopy Sciences; CF 400-Cu) were glow-discharged on an ELMO system for 30 sec at 2 mA. 5 µl samples were applied onto the grids and incubated for 30 s, the sample was blotted, washed in 3 drops of water and then stained with 2% (weight/vol) uranyl acetate. Images were recorded on a Gatan UltraScan4000 charged coupled device (CCD) camera (Gatan) on a Tecnai T12 BioTWINLaB6 electron microscope operating at a voltage of 120 kV."}, "[7]": {"system": "FtsZ", "settings": "400 nm, 25 °C, 600 s, 100 mM KCl, 10 mM MgCl2, 25 mM Pipes pH 6.9, 15 µM proteins, GTP", "method": "The mixture was placed into a quartz cuvette with a light path of 10 mm or a 96-well plate and 0.5−2 mM GTP or GMPCPP were added to the reaction mixture. Data acquisition started immediately using an UV–Visible Spectrophotometer (Thermo scientific Evolution 220) during 600 s at 25 °C using 400 nm for excitation and emission and spectra with slits widths of 1 nm or a Varioskan™ LUX plate reader (Thermo Fisher Scientific) with an excitation of 400 nm. Experiments were done in triplicates and measurements were taken every 15 s during 600 s and keeping a constant temperature of 25 °C."}, "[8]": {"system": "C. glutamicum ATCC13032 whole-cell extracts", "experiment": "SepF and FtsZ quantification by Western blot", "assay_type": "cell-based, Corynebacterium glutamicum", "settings": "60 ugr loaded"}, "[9]": {"system": "FtsZ and SUVs", "experiment": "Cryo-EM of ternary complex FtsZ-GTP + SepF + SUVs", "assay_type": "biochemical, C. glutamicum", "settings": "100 μM SUVs, 10 μM SepF, 10 μM FtsZ, 3 mM GTP", "protocol": "5 µl of sample were deposited onto glow-discharged lacey carbon copper grids (Ted Pella) and plunge-frozen in liquid ethane using a Leica EM-CPC. Cryo-EM data acquisition was performed on a JEOL 2200FS (Jeol, Japan) 200 kV cryo-electron microscope equipped with an Omega in-column energy filter. High magnification (30,000×, corresponding pixel size 0.32 nm) zero-loss (slit: 20 eV) images were collected at nominal defocus between 1 and 4 µm depending on the experiment on a Gatan USC1000 slow scan CCD camera."}, "[10]": {"system": "Pino-sepF strain", "experiment": "Growth curves / complementation of the Pino-sepF strain", "settings": "SepF depletion with 1% myo-inositol, exogenous construct induced", "method": "Positive colonies were grown in BHI media supplemented with 25 µg/ml kanamycin overnight at 30 °C and 120 rpm shaking.\nAll strains were plated in CGXII media plates with 4% (w/v) sucrose as a carbon source for 2 days at 30 °C and then single colonies were inoculated in 10 ml of CGXII media 4% (w/v) sucrose overnight at 30 °C and 120 rpm shaking. The next day, 20 ml of CGXII media supplemented with the appropriate repressor or inducer were inoculated with the overnight cultures to a starting OD600 of 1. OD600 measurements were taken every 1.5 h. Each growth curve represents the average of three different growth curves originally from three different single colonies. […] When required, CGXII media 4% (w/v) sucrose was supplemented with either 1% (w/v) myo-inositol, 50 ng/ml tetracycline or 1% (w/v) gluconate and 25 μg/ml kanamycin."}, "[11]": {"experiment": "Negative stain EM of SUVs with SepF", "assay_type": "biochemical", "settings": "end-point of SepF + SUVs reaction, 50 μM"}, "[12]": {"experiment": "Dynamic light scattering", "assay_type": "physicochemical", "settings": "SUVs + SepF 50 µM each, pH 6.9, 25 °C", "protocol": "Polydispersity of the samples was measured using Dyna-pro Plate Reader (Wyatt technology) equipped with an 830 nm laser and a temperature control module. The Dynamics software (version 7.9) was used to schedule data acquisition and data analysis. For each well, 20 measurements of 10 s were averaged and this operation was repeated 20 times for each condition at 25 °C. For samples containing FtsZCTD, the peptide was used at a final concentration of 100 µM. All the experiments were carried out as minimum three biological and technical replicates."}, "[13]": {"system": "FtsZ", "settings": "immunoprecipitation coupled to crosslinking; unpaired t-test p 0.004", "method": "Cells were harvested, washed, and normalized by resuspending cell pellets in PBS-T (1X PBS, 0.1% v/v Tween-80) to give a final OD600 of 3. The cell suspensions were cross-linked with 0.25% v/v of formaldehyde for 20 min at 30 °C with gentle agitation. The crosslinking reaction was stopped by adding 1.25 M glycine and incubated for 5 min at room temperature. Cells were resuspended in 50 mM Bis-Tris pH 7.4, 75 mM aminocaproic acid, 1 mM MgSO4, 1× Benzonase, 1× Complete Protease inhibitors cocktail (ROCHE) and disrupted at 4 °C with 0.1 mm glass beads and using a [sequence] 24 homogenizer. After lysis, 0.1% n-Dodecyl-β-D-Maltopyranoside was added and the total extract was incubated for 1 h at 4 °C. Cell lysates were centrifuged at 4 °C for 10 min at 14,000 rpm and the soluble fraction was collected and protein levels quantified.\nDetergent-solubilized protein extracts were incubated with 50 μl of magnetic beads cross-linked with 10 μg of purified anti-Scarlet antibody (produced by Covalab). […] Tryptic peptides from three replicates of each condition were analyzed using a nano-HPLC (Ultimate 3000, Thermo) coupled to a hybrid quadrupole-orbitrap mass spectrometer (Q-Exactive Plus, Thermo). […]\nPatternlab for proteomics was used for label-free quantitation analyses using extracted ion chromatogram (XIC)."}, "[14]": {"system": "Pino-sepF strain", "experiment": "Cell length distribution (violin plots), Pino-sepF strains", "assay_type": "cell-based, Corynebacterium glutamicum", "settings": "1% myo-inositol + 1% gluconate, t = 6, replicate 1, listed as PgntK_SepF(K125R/F131A)_Scarlet", "method": "For imaging, cultures of C. glutamicum were grown in BHI or minimal medium CGXII during the day, and washed and inoculated into CGXII media for overnight growth. The following day cultures were diluted to OD600 = 1 and grown to the required OD (early exponential phase) for imaging. For HADA labeling, cultures were incubated with 0.5 mM HADA for 20 min at 30 °C in the dark. Two percent agarose pads were prepared with the corresponding growth medium and cells were visualized using a Zeiss Axio Observer Z1 microscope fitted with an Orca Flash 4 V2 sCMOS camera (Hamamatsu), and a Pln-Apo 63×/1.4 oil Ph3 objective. Images were collected using Zen Blue 2.6 (Zeiss) and analyzed using the software Fiji[70] and the plugin MicrobeJ[71] to generate violin plots and fluorescent intensity heatmaps. […] The experiments were performed as biological triplicates."}, "[15]": {"system": "Pino-sepF strain", "experiment": "Scarlet fluorescence localization in the Pino-sepF strain", "assay_type": "cell-based, Corynebacterium glutamicum", "settings": "1% myo-inositol plus 1% gluconate", "protocol": "For imaging, cultures of C. glutamicum were grown in BHI or minimal medium CGXII during the day, and washed and inoculated into CGXII media for overnight growth. The following day cultures were diluted to OD600 = 1 and grown to the required OD (early exponential phase) for imaging. For HADA labeling, cultures were incubated with 0.5 mM HADA for 20 min at 30 °C in the dark. Two percent agarose pads were prepared with the corresponding growth medium and cells were visualized using a Zeiss Axio Observer Z1 microscope fitted with an Orca Flash 4 V2 sCMOS camera (Hamamatsu), and a Pln-Apo 63×/1.4 oil Ph3 objective. Images were collected using Zen Blue 2.6 (Zeiss) and analyzed using the software Fiji[70] and the plugin MicrobeJ[71] to generate violin plots and fluorescent intensity heatmaps. Statistical analyses of cell lengths are summarized in Supplementary Tables 5 and 6. The experiments were performed as biological triplicates. Some autofluorescence is observed for wild-type C. glutamicum as shown in Supplementary Fig. 24."}},
  "note": "Substitutions are numbered along the chain they refer to. Numbers in names are those of the source.",
  "data": [
    {"molecule": "B1", "values": [
      {"measurement": "polymerization with SUVs (turbidity)", "setting": "[1]", "value": "SepF concentration-dependent polymerization"},
      {"measurement": "FtsZ filament morphology by EM", "setting": "[2]", "value": "thick bundles of FtsZ protofilaments, as well as highly curved filaments"},
      {"measurement": "effect on GTPase activity of FtsZ", "setting": "[3]; 15 µM SepF and FtsZ, F test p=0.5872", "value": "did not significantly affect the GTPase activity of FtsZ"},
      {"measurement": "GTPase activity (phosphate release), mean", "setting": "[3]; 15 µM each, 2 mM GTP, pH 6.9, room temperature, 10 min, mean, n = 11", "value": 0.09, "unit": "nmol"},
      {"measurement": "protein overexpression upon induction", "setting": "[4]", "value": "~ 30 fold"},
      {"measurement": "ring-like structures per cell", "setting": "[5]", "value": "multiple-rings phenotype is not observed"},
      {"measurement": "ring-like structures by EM", "setting": "[6]", "value": "unsuccessful"},
      {"measurement": "effect on FtsZ polymerization / bundling", "setting": "[7]", "value": "strong FtsZ bundling effect"},
      {"measurement": "band volume in whole-cell extract", "setting": "[8]; ON S (over-night, sucrose)", "value": 455544},
      {"measurement": "band volume in whole-cell extract", "setting": "[8]; ON S+G (over-night, sucrose + gluconate)", "value": 420204},
      {"measurement": "band volume in whole-cell extract", "setting": "[8]; T6 S (6 h, sucrose)", "value": 522995},
      {"measurement": "band volume in whole-cell extract", "setting": "[8]; T6 S+G (6 h, sucrose + gluconate)", "value": 618345},
      {"measurement": "lipid binding in ternary complex", "setting": "[9]", "value": "dimeric form of SepF retains lipid-binding capability"},
      {"measurement": "complementation of SepF depletion (growth)", "setting": "[10]", "value": "rescued"},
      {"measurement": "vesicle morphology by EM", "setting": "[11]", "value": "lipid vesicles were tubulated"},
      {"measurement": "particle size by DLS", "setting": "[12]", "value": "formation of large structures"}
    ]},
    {"molecule": "B2", "values": [
      {"measurement": "frequency of cells with n septa (ring-like structures)", "setting": "[5]; n septa 0, replicate 1", "value": 0.122},
      {"measurement": "frequency of cells with n septa (ring-like structures)", "setting": "[5]; n septa 0, replicate 2", "value": 0.074},
      {"measurement": "frequency of cells with n septa (ring-like structures)", "setting": "[5]; n septa 0, replicate 3", "value": 0.099},
      {"measurement": "frequency of cells with n septa (ring-like structures)", "setting": "[5]; n septa 1, replicate 1", "value": 0.227},
      {"measurement": "frequency of cells with n septa (ring-like structures)", "setting": "[5]; n septa 1, replicate 2", "value": 0.25},
      {"measurement": "frequency of cells with n septa (ring-like structures)", "setting": "[5]; n septa 1, replicate 3", "value": 0.189},
      {"measurement": "frequency of cells with n septa (ring-like structures)", "setting": "[5]; n septa 2, replicate 1", "value": 0.246},
      {"measurement": "frequency of cells with n septa (ring-like structures)", "setting": "[5]; n septa 2, replicate 2", "value": 0.193},
      {"measurement": "frequency of cells with n septa (ring-like structures)", "setting": "[5]; n septa 2, replicate 3", "value": 0.186},
      {"measurement": "frequency of cells with n septa (ring-like structures)", "setting": "[5]; n septa 3, replicate 1", "value": 0.241},
      {"measurement": "frequency of cells with n septa (ring-like structures)", "setting": "[5]; n septa 3, replicate 2", "value": 0.22},
      {"measurement": "frequency of cells with n septa (ring-like structures)", "setting": "[5]; n septa 3, replicate 3", "value": 0.232},
      {"measurement": "frequency of cells with n septa (ring-like structures)", "setting": "[5]; n septa 4, replicate 1", "value": 0.102},
      {"measurement": "frequency of cells with n septa (ring-like structures)", "setting": "[5]; n septa 4, replicate 2", "value": 0.152},
      {"measurement": "frequency of cells with n septa (ring-like structures)", "setting": "[5]; n septa 4, replicate 3", "value": 0.133},
      {"measurement": "frequency of cells with n septa (ring-like structures)", "setting": "[5]; n septa 5, replicate 1", "value": 0.042},
      {"measurement": "frequency of cells with n septa (ring-like structures)", "setting": "[5]; n septa 5, replicate 2", "value": 0.077},
      {"measurement": "frequency of cells with n septa (ring-like structures)", "setting": "[5]; n septa 5, replicate 3", "value": 0.11},
      {"measurement": "frequency of cells with n septa (ring-like structures)", "setting": "[5]; n septa 6, replicate 1", "value": 0.014},
      {"measurement": "frequency of cells with n septa (ring-like structures)", "setting": "[5]; n septa 6, replicate 2", "value": 0.03},
      {"measurement": "frequency of cells with n septa (ring-like structures)", "setting": "[5]; n septa 6, replicate 3", "value": 0.033},
      {"measurement": "frequency of cells with n septa (ring-like structures)", "setting": "[5]; n septa 7, replicate 1", "value": 0.006},
      {"measurement": "frequency of cells with n septa (ring-like structures)", "setting": "[5]; n septa 7, replicate 2", "value": 0.003},
      {"measurement": "frequency of cells with n septa (ring-like structures)", "setting": "[5]; n septa 7, replicate 3", "value": 0.015},
      {"measurement": "ring-like structures per cell", "setting": "[5]", "value": "net increase in the number of ring-like structures per cell"},
      {"measurement": "fold reduction of FtsZ binding (normalized FtsZ) versus SepF-Scarlet", "setting": "[13]", "value": 7.2, "unit": "fold"},
      {"measurement": "mean cell length", "setting": "[14]", "value": 9.96},
      {"measurement": "localization of Scarlet construct", "setting": "[15]", "value": "diffuse in the cytoplasm"},
      {"measurement": "complementation of SepF depletion (growth)", "setting": "[10]", "value": "completely failed to complement"}
    ]}
  ]
}
